The values below come from US20150266967A1.

As a reminder, the Kd is the free concentration of one partner at which half of the binding sites on the other are occupied at equilibrium, for simple one-to-one binding.

In this assay the target is recombinant Fcγ-receptor 3a protein, high affinity V158 allotype (UniProt P08637). Put plainly: surface plasmon resonance, KD from ka and kd.
recombinant Fcγ-receptor 3a protein, high affinity V158 allotype, sequence (P08637 17-208 F176V): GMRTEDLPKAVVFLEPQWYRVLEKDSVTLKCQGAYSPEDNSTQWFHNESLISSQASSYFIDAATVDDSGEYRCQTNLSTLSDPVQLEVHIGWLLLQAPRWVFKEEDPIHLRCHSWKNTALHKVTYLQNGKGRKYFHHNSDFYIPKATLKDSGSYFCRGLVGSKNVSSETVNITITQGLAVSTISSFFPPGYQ

In the case of “non Fc-engineered IgG1 reference antibody”, the Kd turned out to be 379 nM.
